# Results as given in patent US20230357348A1 (AstraZeneca / MedImmune, published 2023).
# Starred links: 1 amine or outer side, 2 acyl side, 3 side chain; linkers in the order of their positions; H or OH if unused. Non-standard residues stand in square brackets, D forms with d. Groups on a side chain read outwards from the residue. No end group written: not given here. *: point of attachment. C18 diacid = O=C(O)CCCCCCCCCCCCCCCCC(=O)*; γGlu = O=C(O)[C@H](CCC(=O)[*:2])N[*:1]; αMeF = C[C@](N)(Cc1ccccc1)C(=O)O; AEEA = NCCOCCOCC(=O)O; Aib = CC(C)(N)C(=O)O
# B1: Peptide 463 (peptide)
# peptide: H[Aib]QGTFTSDVSK[αMeF]LDSK([AEEA-AEEA-γGlu-γGlu-C18 diacid])RAQDFVQWLL[Aib]T-NH2
# modifications: N-terminus assumed
# SMILES: CC(C)C[C@H](NC(=O)[C@H](Cc1c[nH]c2ccccc12)NC(=O)[C@H](CCC(N)=O)NC(=O)[C@@H](NC(=O)[C@H](Cc1ccccc1)NC(=O)[C@H](CC(=O)O)NC(=O)[C@H](CCC(N)=O)NC(=O)[C@H](C)NC(=O)[C@H](CCCNC(=N)N)NC(=O)[C@H](CCCCNC(=O)COCCOCCNC(=O)COCCOCCNC(=O)CC[C@H](NC(=O)CC[C@H](NC(=O)CCCCCCCCCCCCCCCCC(=O)O)C(=O)O)C(=O)O)NC(=O)[C@H](CO)NC(=O)[C@H](CC(=O)O)NC(=O)[C@H](CC(C)C)NC(=O)[C@](C)(Cc1ccccc1)NC(=O)[C@H](CCCCN)NC(=O)[C@H](CO)NC(=O)[C@@H](NC(=O)[C@H](CC(=O)O)NC(=O)[C@H](CO)NC(=O)[C@@H](NC(=O)[C@H](Cc1ccccc1)NC(=O)[C@@H](NC(=O)CNC(=O)[C@H](CCC(N)=O)NC(=O)C(C)(C)NC(=O)[C@@H](N)Cc1c[nH]cn1)[C@@H](C)O)[C@@H](C)O)C(C)C)C(C)C)C(=O)N[C@@H](CC(C)C)C(=O)NC(C)(C)C(=O)N[C@H](C(N)=O)[C@@H](C)O
# B2: Peptide 461 (peptide)
# peptide: H[Aib]QGTFTSDVSK[αMeF]LDRK([AEEA-AEEA-γGlu-C18 diacid])RAQDFVRWLLAE-NH2
# modifications: N-terminus assumed
# SMILES: CC(C)C[C@H](NC(=O)[C@H](CC(C)C)NC(=O)[C@H](Cc1c[nH]c2ccccc12)NC(=O)[C@H](CCCNC(=N)N)NC(=O)[C@@H](NC(=O)[C@H](Cc1ccccc1)NC(=O)[C@H](CC(=O)O)NC(=O)[C@H](CCC(N)=O)NC(=O)[C@H](C)NC(=O)[C@H](CCCNC(=N)N)NC(=O)[C@H](CCCCNC(=O)COCCOCCNC(=O)COCCOCCNC(=O)CC[C@H](NC(=O)CCCCCCCCCCCCCCCCC(=O)O)C(=O)O)NC(=O)[C@H](CCCNC(=N)N)NC(=O)[C@H](CC(=O)O)NC(=O)[C@H](CC(C)C)NC(=O)[C@](C)(Cc1ccccc1)NC(=O)[C@H](CCCCN)NC(=O)[C@H](CO)NC(=O)[C@@H](NC(=O)[C@H](CC(=O)O)NC(=O)[C@H](CO)NC(=O)[C@@H](NC(=O)[C@H](Cc1ccccc1)NC(=O)[C@@H](NC(=O)CNC(=O)[C@H](CCC(N)=O)NC(=O)C(C)(C)NC(=O)[C@@H](N)Cc1c[nH]cn1)[C@@H](C)O)[C@@H](C)O)C(C)C)C(C)C)C(=O)N[C@@H](C)C(=O)N[C@@H](CCC(=O)O)C(N)=O
# B3: Peptide 140 (peptide)
# peptide: H[Aib]QGTFTSDVSK[αMeF]LDTK([AEEA-AEEA-γGlu-C18 diacid])RAQDFVRWLLE[Aib]G-OH
# modifications: N-terminus assumed
# SMILES: CC(C)C[C@H](NC(=O)[C@H](Cc1c[nH]c2ccccc12)NC(=O)[C@H](CCCNC(=N)N)NC(=O)[C@@H](NC(=O)[C@H](Cc1ccccc1)NC(=O)[C@H](CC(=O)O)NC(=O)[C@H](CCC(N)=O)NC(=O)[C@H](C)NC(=O)[C@H](CCCNC(=N)N)NC(=O)[C@H](CCCCNC(=O)COCCOCCNC(=O)COCCOCCNC(=O)CC[C@H](NC(=O)CCCCCCCCCCCCCCCCC(=O)O)C(=O)O)NC(=O)[C@@H](NC(=O)[C@H](CC(=O)O)NC(=O)[C@H](CC(C)C)NC(=O)[C@](C)(Cc1ccccc1)NC(=O)[C@H](CCCCN)NC(=O)[C@H](CO)NC(=O)[C@@H](NC(=O)[C@H](CC(=O)O)NC(=O)[C@H](CO)NC(=O)[C@@H](NC(=O)[C@H](Cc1ccccc1)NC(=O)[C@@H](NC(=O)CNC(=O)[C@H](CCC(N)=O)NC(=O)C(C)(C)NC(=O)[C@@H](N)Cc1c[nH]cn1)[C@@H](C)O)[C@@H](C)O)C(C)C)[C@@H](C)O)C(C)C)C(=O)N[C@@H](CC(C)C)C(=O)N[C@@H](CCC(=O)O)C(=O)NC(C)(C)C(=O)NCC(=O)O
# Biological target: human GLP-1 receptor (hGLP-1R) (human, UniProt P43220 24-463)
# Test: cell-based or functional assay
row,Binder,hGLP-1R EC50 (pM)
1,B1,274 pM
2,B2,167 pM
3,B3,22.7 pM
